± gives the uncertainty stated by the source.
Test: abundance fitness (aPCA) (normalised: wild type 0, dead -1); higher = more abundant; growth selection in yeast, the domain comes from the species named
Settings: Homo sapiens
Substance “NEDD4-like E3 ubiquitin-protein ligase WWP2 R493Y, O00308” has an abundance fitness of -0.055 ± 0.055. “NEDD4-like E3 ubiquitin-protein ligase WWP2 S456A, O00308” showed an abundance fitness of -0.066 ± 0.048. Substance “NEDD4-like E3 ubiquitin-protein ligase WWP2 S456C, O00308” has an abundance fitness of -0.01 ± 0.063. “NEDD4-like E3 ubiquitin-protein ligase WWP2 S456D, O00308” gave an abundance fitness of 0.085 ± 0.071. With “NEDD4-like E3 ubiquitin-protein ligase WWP2 S456E, O00308” the abundance fitness was 0.017 ± 0.035. Substance “NEDD4-like E3 ubiquitin-protein ligase WWP2 S456F, O00308” has an abundance fitness of -0.24 ± 0.063. For “NEDD4-like E3 ubiquitin-protein ligase WWP2 S456G, O00308”, the abundance fitness was -0.043 ± 0.046. “NEDD4-like E3 ubiquitin-protein ligase WWP2 S456H, O00308” showed an abundance fitness of 0.346 ± 0.096. For “NEDD4-like E3 ubiquitin-protein ligase WWP2 S456K, O00308”, the abundance fitness was -0.039 ± 0.054. “NEDD4-like E3 ubiquitin-protein ligase WWP2 S456L, O00308” showed an abundance fitness of -0.169 ± 0.05. “NEDD4-like E3 ubiquitin-protein ligase WWP2 S456M, O00308” gave an abundance fitness of -0.06 ± 0.065. In the case of “NEDD4-like E3 ubiquitin-protein ligase WWP2 S456N, O00308”, the abundance fitness is reported as 0.04 ± 0.074. Substance “NEDD4-like E3 ubiquitin-protein ligase WWP2 S456P, O00308” has an abundance fitness of -0.062 ± 0.062. “NEDD4-like E3 ubiquitin-protein ligase WWP2 S456Q, O00308” showed an abundance fitness of -0.11 ± 0.066. In the case of “NEDD4-like E3 ubiquitin-protein ligase WWP2 S456R, O00308”, the abundance fitness is reported as -0.142 ± 0.041. With “NEDD4-like E3 ubiquitin-protein ligase WWP2 S456T, O00308” the abundance fitness was -0.04 ± 0.06. Work on “NEDD4-like E3 ubiquitin-protein ligase WWP2 S456V, O00308” yielded an abundance fitness of -0.208 ± 0.059. “NEDD4-like E3 ubiquitin-protein ligase WWP2 S456W, O00308” gave an abundance fitness of -0.192 ± 0.047. “NEDD4-like E3 ubiquitin-protein ligase WWP2 S456Y, O00308” gave an abundance fitness of -0.589 ± 0.12. For “NEDD4-like E3 ubiquitin-protein ligase WWP2 S481A, O00308”, the abundance fitness was 0 ± 0.061. “NEDD4-like E3 ubiquitin-protein ligase WWP2 S481C, O00308” showed an abundance fitness of -0.054 ± 0.061. “NEDD4-like E3 ubiquitin-protein ligase WWP2 S481D, O00308” gave an abundance fitness of 0.01 ± 0.037. For “NEDD4-like E3 ubiquitin-protein ligase WWP2 S481E, O00308”, the abundance fitness was 0.022 ± 0.071. In the case of “NEDD4-like E3 ubiquitin-protein ligase WWP2 S481F, O00308”, the abundance fitness is reported as -0.039 ± 0.062. With “NEDD4-like E3 ubiquitin-protein ligase WWP2 S481G, O00308” the abundance fitness was -0.032 ± 0.047. In the case of “NEDD4-like E3 ubiquitin-protein ligase WWP2 S481H, O00308”, the abundance fitness is reported as -0.17 ± 0.08. Substance “NEDD4-like E3 ubiquitin-protein ligase WWP2 S481I, O00308” has an abundance fitness of -0.047 ± 0.067. For “NEDD4-like E3 ubiquitin-protein ligase WWP2 S481K, O00308”, the abundance fitness was -0.072 ± 0.049. With “NEDD4-like E3 ubiquitin-protein ligase WWP2 S481L, O00308” the abundance fitness was -0.081 ± 0.053. “NEDD4-like E3 ubiquitin-protein ligase WWP2 S481N, O00308” gave an abundance fitness of -0.062 ± 0.054. In the case of “NEDD4-like E3 ubiquitin-protein ligase WWP2 S481P, O00308”, the abundance fitness is reported as 0.003 ± 0.049. With “NEDD4-like E3 ubiquitin-protein ligase WWP2 S481Q, O00308” the abundance fitness was -0.014 ± 0.039. Work on “NEDD4-like E3 ubiquitin-protein ligase WWP2 S481R, O00308” yielded an abundance fitness of -0.042 ± 0.034. Substance “NEDD4-like E3 ubiquitin-protein ligase WWP2 S481T, O00308” has an abundance fitness of 0.029 ± 0.047. “NEDD4-like E3 ubiquitin-protein ligase WWP2 S481V, O00308” showed an abundance fitness of -0.151 ± 0.056. Substance “NEDD4-like E3 ubiquitin-protein ligase WWP2 S481W, O00308” has an abundance fitness of -0.09 ± 0.035. “NEDD4-like E3 ubiquitin-protein ligase WWP2 S481Y, O00308” showed an abundance fitness of -0.102 ± 0.063. Work on “NEDD4-like E3 ubiquitin-protein ligase WWP2 S487A, O00308” yielded an abundance fitness of -0.034 ± 0.055. For “NEDD4-like E3 ubiquitin-protein ligase WWP2 S487C, O00308”, the abundance fitness was -0.032 ± 0.04. Work on “NEDD4-like E3 ubiquitin-protein ligase WWP2 S487D, O00308” yielded an abundance fitness of 0.013 ± 0.036. “NEDD4-like E3 ubiquitin-protein ligase WWP2 S487E, O00308” gave an abundance fitness of 0.025 ± 0.034. With “NEDD4-like E3 ubiquitin-protein ligase WWP2 S487F, O00308” the abundance fitness was -0.112 ± 0.057. For “NEDD4-like E3 ubiquitin-protein ligase WWP2 S487G, O00308”, the abundance fitness was -0.03 ± 0.034. “NEDD4-like E3 ubiquitin-protein ligase WWP2 S487H, O00308” gave an abundance fitness of 0.111 ± 0.073. “NEDD4-like E3 ubiquitin-protein ligase WWP2 S487I, O00308” showed an abundance fitness of -0.038 ± 0.074. For “NEDD4-like E3 ubiquitin-protein ligase WWP2 S487K, O00308”, the abundance fitness was 0.016 ± 0.038. Work on “NEDD4-like E3 ubiquitin-protein ligase WWP2 S487L, O00308” yielded an abundance fitness of -0.067 ± 0.04. Substance “NEDD4-like E3 ubiquitin-protein ligase WWP2 S487M, O00308” has an abundance fitness of -0.024 ± 0.057. “NEDD4-like E3 ubiquitin-protein ligase WWP2 S487N, O00308” gave an abundance fitness of -0.034 ± 0.04. In the case of “NEDD4-like E3 ubiquitin-protein ligase WWP2 S487Q, O00308”, the abundance fitness is reported as -0.024 ± 0.061. Work on “NEDD4-like E3 ubiquitin-protein ligase WWP2 S487R, O00308” yielded an abundance fitness of -0.006 ± 0.034. Substance “NEDD4-like E3 ubiquitin-protein ligase WWP2 S487T, O00308” has an abundance fitness of 0.058 ± 0.059. “NEDD4-like E3 ubiquitin-protein ligase WWP2 S487V, O00308” showed an abundance fitness of -0.034 ± 0.035. In the case of “NEDD4-like E3 ubiquitin-protein ligase WWP2 S487W, O00308”, the abundance fitness is reported as -0.149 ± 0.05. For “NEDD4-like E3 ubiquitin-protein ligase WWP2 T455A, O00308”, the abundance fitness was -0.659 ± 0.061. “NEDD4-like E3 ubiquitin-protein ligase WWP2 T455C, O00308” gave an abundance fitness of -0.339 ± 0.068. With “NEDD4-like E3 ubiquitin-protein ligase WWP2 T455E, O00308” the abundance fitness was -0.563 ± 0.18. For “NEDD4-like E3 ubiquitin-protein ligase WWP2 T455F, O00308”, the abundance fitness was -0.912 ± 0.14. Work on “NEDD4-like E3 ubiquitin-protein ligase WWP2 T455G, O00308” yielded an abundance fitness of -0.379 ± 0.045. Substance “NEDD4-like E3 ubiquitin-protein ligase WWP2 T455I, O00308” has an abundance fitness of -0.529 ± 0.08. “NEDD4-like E3 ubiquitin-protein ligase WWP2 T455K, O00308” showed an abundance fitness of -0.628 ± 0.082. “NEDD4-like E3 ubiquitin-protein ligase WWP2 T455L, O00308” gave an abundance fitness of -0.258 ± 0.048. Work on “NEDD4-like E3 ubiquitin-protein ligase WWP2 T455M, O00308” yielded an abundance fitness of -0.415 ± 0.066. Substance “NEDD4-like E3 ubiquitin-protein ligase WWP2 T455N, O00308” has an abundance fitness of -0.147 ± 0.073. “NEDD4-like E3 ubiquitin-protein ligase WWP2 T455P, O00308” showed an abundance fitness of -0.968 ± 0.071. “NEDD4-like E3 ubiquitin-protein ligase WWP2 T455R, O00308” showed an abundance fitness of -0.762 ± 0.038. With “NEDD4-like E3 ubiquitin-protein ligase WWP2 T455S, O00308” the abundance fitness was -0.115 ± 0.041. Substance “NEDD4-like E3 ubiquitin-protein ligase WWP2 T455V, O00308” has an abundance fitness of -0.678 ± 0.05. Substance “NEDD4-like E3 ubiquitin-protein ligase WWP2 T455W, O00308” has an abundance fitness of -0.866 ± 0.1. Work on “NEDD4-like E3 ubiquitin-protein ligase WWP2 T455Y, O00308” yielded an abundance fitness of -0.62 ± 0.07. In the case of “NEDD4-like E3 ubiquitin-protein ligase WWP2 T467A, O00308”, the abundance fitness is reported as -0.098 ± 0.12. With “NEDD4-like E3 ubiquitin-protein ligase WWP2 T467I, O00308” the abundance fitness was -0.421 ± 0.26. For “NEDD4-like E3 ubiquitin-protein ligase WWP2 T467R, O00308”, the abundance fitness was -0.405 ± 0.18. “NEDD4-like E3 ubiquitin-protein ligase WWP2 T467S, O00308” showed an abundance fitness of -0.136 ± 0.056. In the case of “NEDD4-like E3 ubiquitin-protein ligase WWP2 T469C, O00308”, the abundance fitness is reported as -0.078 ± 0.057. “NEDD4-like E3 ubiquitin-protein ligase WWP2 T469D, O00308” showed an abundance fitness of -0.257 ± 0.055. Substance “NEDD4-like E3 ubiquitin-protein ligase WWP2 T469E, O00308” has an abundance fitness of -0.228 ± 0.034. For “NEDD4-like E3 ubiquitin-protein ligase WWP2 T469F, O00308”, the abundance fitness was -0.215 ± 0.068. With “NEDD4-like E3 ubiquitin-protein ligase WWP2 T469G, O00308” the abundance fitness was -0.346 ± 0.054. Work on “NEDD4-like E3 ubiquitin-protein ligase WWP2 T469H, O00308” yielded an abundance fitness of -0.26 ± 0.036. “NEDD4-like E3 ubiquitin-protein ligase WWP2 T469M, O00308” showed an abundance fitness of -0.096 ± 0.053. Substance “NEDD4-like E3 ubiquitin-protein ligase WWP2 T469N, O00308” has an abundance fitness of -0.093 ± 0.072. Substance “NEDD4-like E3 ubiquitin-protein ligase WWP2 T469P, O00308” has an abundance fitness of -1.16 ± 0.13. “NEDD4-like E3 ubiquitin-protein ligase WWP2 T469Q, O00308” gave an abundance fitness of -0.196 ± 0.06. “NEDD4-like E3 ubiquitin-protein ligase WWP2 T469R, O00308” showed an abundance fitness of -0.243 ± 0.038. “NEDD4-like E3 ubiquitin-protein ligase WWP2 T469S, O00308” showed an abundance fitness of -0.032 ± 0.041. Work on “NEDD4-like E3 ubiquitin-protein ligase WWP2 T469V, O00308” yielded an abundance fitness of -0.151 ± 0.038. Substance “NEDD4-like E3 ubiquitin-protein ligase WWP2 T469W, O00308” has an abundance fitness of -0.502 ± 0.036.

Source: the Human Domainome abundance scans (Beltran et al. 2025)
